Reference: patent publication US10287572B2, “Protein scaffolds and methods of use” (REGENTS OF THE UNIVERSITY OF MINNESOTA, priority 2013, dated 2019)

Tests used:
EGFR = molecular target: T1, EGFR (Homo sapiens, UniProt P00533); test: In vitro cell labeling with tGp2-EGFR-His6, flow cytometry; type: cell-based
T1 construct: endogenous in cells; host or cells: A431, MDA-MB-231, MCF7
Procedure: Cells were pelleted, washed with PBSA, and labeled with fluorescein-conjugated rabbit anti-His6 antibody for 15 minutes at 4° C. Cells were pelleted and washed, and analyzed on an Accuri C6 flow cytometer (BD Biosciences, San Jose, Calif.).
Cell lines were labeled as above with biotinylated tGp2-EGFR-His6. Except, Alexa Fluor 488-conjugated streptavidin was used as the secondary label.
Additionally, ligand specificity was examined through target blocking. […] Cells were pelleted, washed, and labeled with Alexa Fluor 488-conjugated streptavidin for 15 minutes. After washing, flow cytometry was used to compare fluorescence of blocked and unblocked samples.

soluble EGFR ectodomain = soluble EGFR ectodomain (Homo sapiens, UniProt P00533); test: Yeast-displayed Gp2 binding to soluble EGFR ectodomain; conditions: 1 nM soluble EGFR ectodomain
Procedure: The plasmid containing the clone of interest was transformed into yeast using the Frozen EZ Transformation Kit II (Zymo Research Corp., Irvine, Calif.), plated on SD medium plates and then grown directly in SG medium at 30° C. for at least 12 hours to induce protein expression. Cells were pelleted and washed with PBSA (phosphate buffered saline with 0.1% bovine serum albumin) and resuspended in PBSA containing biotin conjugated target over a range of concentrations. […] The samples were incubated at 22° C. for an appropriate amount of time to reach 90% of the approach to equilibrium. After incubation, cells were washed and labeled with mouse anti-c-myc antibody (clone 9E10) for 10-15 minutes, washed, and labeled with fluorescein-conjugated goat anti-mouse antibody and Alexa Fluor 647-conjugated streptavidin for 10-15 minutes. Yeast were washed and Alexa Fluor 647 fluorescence was analyzed on a FACSCalibur flow cytometer (BD Biosciences, San Jose, Calif.). The relative fraction bound for cells displaying tGp2 was determined by subtracting background fluorescence of an unlabeled control and normalizing to the maximum saturated signal at high concentrations. The equilibrium dissociation constant, KD, was identified as the concentration where half-maximal binding occurred.

[1] = Circular dichroism thermal denaturation; type: physicochemical; conditions: ellipticity at 218 nm, 24-98 °C, PBS
Procedure: Purified tGp2 was lyophilized and resuspended in PBS to a concentration of 0.3-0.9 mg mL^−1. Ellipticity was measured from 260 to 200 nm on a Jasco J-815 spectrophotometer (Jasco, Inc., Easton, Md.) in a quartz cuvette with 1 mm path length. Thermal denaturation was carried out by measuring the ellipticity at 218 nm from 24° C. to 98° C. and Tm was calculated from a standard two-state unfolding curve.

rabbit IgG = test: Equilibrium competition titration of soluble tGp2, rabbit IgG; type: binding; conditions: soluble protein, read-out: Affinity (KD) of soluble tGp2
Procedure: Soluble affinity of select tGp2 proteins was determined using equilibrium competition titration, as described previously (Lipovsek et al., J Mol Biol, 2007, 368:1024-1041). Briefly, the soluble tGp2 clone was allowed sufficient time to reach 90% equilibrium with biotin-conjugated target over a range of tGp2 concentrations. Yeast cells displaying the same tGp2 clone and yeast cells harboring no plasmid (to aid in pelleting) were added to the solution, and allowed to equilibrate for six days. Cells were washed, labeled for target binding and analyzed with flow cytometry, as above.

GaE 2.3.3: EGFR-specific tGp2 scaffold; loop 1 SRGDSYW (SEQ ID NO:2), loop 2 PMYHIYY (SEQ ID NO:3), frame mutation W45R (KFWATVSRGDSYWFEVPVYAETLDEALELAERQYPMYHIYYVTRVRP)
Binding to human cancer cell lines (EGFR; 0 or 1 μM Gp2 anti-EGFR, flow cytometry): binds to human cancer cell lines in an EGFR-dependent manner
Blocking of labeled Gp2 binding by unlabeled Gp2 (EGFR; A431 cells, 1 μM unlabeled Gp2): blocks binding of labeled Gp2 to A431 cells
Kd (EGFR; A431 cells, His tag, anti-His6-FITC, flow cytometry, read-out: Affinity for A431 cells (average of two experiments)): 50 nM
Binding of soluble EGFR ectodomain by displaying yeast (soluble EGFR ectodomain): effectively bind
Melting temperature (Tm) by circular dichroism [1]: 81 °C

GaR 3.2.3: Rabbit IgG-binding tGp2 clone; loop 1 HSVHGY (SEQ ID NO:44), loop 2 GNALGY (SEQ ID NO:45), E44F, W45G (KFWATVHSVHGYFEVPVYAETLDEALELAFGQYGNALGYVTRVRP)
Melting temperature (Tm) by circular dichroism [1]: 80 °C
Kd (rabbit IgG): 1 nM

tGp2 wild type: Truncated gene protein 2 of T7 phage, 5.2 kDa, 45 amino acids, SEQ ID NO:1 (KFWATVESSEHSFEVPVYAETLDEALELAEWQYYPAGFEVTRVRP; Enterobacteria phage T7)
Melting temperature (Tm) by circular dichroism [1]: 67 °C
